The results in this text go back to the nanobody polyreactivity screen of Harvey et al. (2022).

The series is described as follows: yeast display, Sf9 membrane polyspecificity reagent, FACS + sequencing; frameworks hold sequencing errors. The essentials:
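After 36–48 hours of galactose induction, yeast (Saccharomyces cerevisiae BJ5465) displaying a synthetic nanobody library were stained at 4 °C for 1 hour with 10% biotinylated, detergent-solubilized Sf9 membrane reagent. Streptavidin microbeads enriched the stained cells before FACS sorting into low and high (top ~1%) gates on anti-HA and streptavidin fluorescence. Each clone's polyreactivity label reflects its gate of origin.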
For “QVQLVESGAGLVQAGGSLRLSCAASGITFYDNDMGWYRQPPGKERELVAGITGTTVGTYYADSVKGRFTISRDIAKNTVYLQMNSLKPEDTAVYYALLTVVVPYQYYSLSLNTLDSWGQGTQVTVSS”, the “polyreactivity (PSR sort gate)” value is reported as “low polyreactivity”.
Consider “QVQLVESGGGLVQAGGSLRLSCAASGSIFVYYTMGWYRQAPGKERELVASITSGGNTNYADSVKGRFTISRDNAKNTVYLQMNSLKPEDTAVYYCAADYQTVTQADWGTVYDYDYWGQGTQVTVSS”, for which the “polyreactivity (PSR sort gate)” value is given as “low polyreactivity”.
Take “QVQHVESVGGLDQAGGSLRLSSAASGRTFYLYAMGWYRQATGKEREFVADINSSGGSTYYADSVKGRFTISRDNAKNTVYLQMNSLKPEDTAVYYCAAYPIPRGRDYWGQGTQVTVSS”: the “polyreactivity (PSR sort gate)” value is reported as “low polyreactivity”.
For the sequence “QVQLVESGGGLVQAGGSLRLICAASGNTFYYYAMGWYRQAPGKERELVASITSTARTYYADSVKGRFTISRDNAKNTGYLQMNSLKPEDTAVYYCNAKEHYATRSDSCGQGTQVTVSS”, the “polyreactivity (PSR sort gate)” value was “high polyreactivity”.
To “QVQLVESGGGLVQAGGSLRLSCAASGRIFDTYVMRWYRQAPGKERELVAAISGSGGSTYYADSVKGRFTISRDTAKNTVYLQMNSLKPEDTAVYYCAAVVLGRLLGFRGDYNYWGQGPQVTVSS” belongs “high polyreactivity”.
To “QVQLVESGGGLVQAGGSLRLSCAASGFTFGYYAMGWYRQAPGKERELVAAINWSGVNTNYADSVKGRFTISRDNEKNTVYLQMNSLKPEDTAVYYCAADAGYDGYGYWGQGTQVTVSS” belongs “low polyreactivity”.
“QVQLVESGGGLVQAGGSLRLSCAASGRTFDSYTMGWYRQAPGKERELVARIRWSGGSTYYADSVKGRFTISRDNAKNTVYLQMNSLKPEDTAVYYCAVYQYVGYTMDYWGQGTQVTVSS”: the “polyreactivity (PSR sort gate)” value was “low polyreactivity”.
To “QVQLVESGGGLVQAGGSLRLSCAASGRTFPNNAMGWYRQAPGKERELVAAISSGSSTDYADSVKGRFTISRDNAKNTVYLQMNSLKPEDTAVYYCNAGDYTYPGSPWPGYAYDYWGQGTQVTVSS” belongs “low polyreactivity”.
With “QVQLVESGGGLVQAGGSLRLSCAASGFIFRRNAMGWYRPAPGKERELVAAITKSGGSTYYADSVKGRFTISRDNAKNTVYLQMNSLKPEDTAVYYCAAPYSAKELYYRMDYWGQGTQVTVSS”, the “polyreactivity (PSR sort gate)” value is listed as “high polyreactivity”.
For “QVQLVESGGGLVQAGGSLRLSCAASGLIFYGNAMGWSRQAPGKERELVAAISRRGGRTYYADSVKGRFTISRDNAKNTVYLQMNSLKPEDTAVYYCDADVIYSGDYWGQGTQVTVSS”, the “polyreactivity (PSR sort gate)” value was “high polyreactivity”.
For the sequence “QVQLVESGGGLVQAGGSLRLSCAASGFIFPFYAMGWYRQAPGKERELVAVIRTSSDRTYYADSVKGRFTISRDNAKNTVYLQMNSLKPEDTAVYYCAAETYRLFDYLGQGTQVTVSS”, the “polyreactivity (PSR sort gate)” value is reported as “low polyreactivity”.
For the sequence “QVQRVESGVRLVQAGGSLRLSCASSGSIFRYYTMGWYRQAPGKERELVAAISRSGGSTYYADSVKGRFTISRDNAKNTVYLQMNSLKPVDTGVYYCAARYKRAQGYREGDYWGQGTQVTVSS”, the “polyreactivity (PSR sort gate)” value is “high polyreactivity”.
Consider “QVQLVESGGGLVQAGGSLRLSCAASGRTFKPYAMGWYRQAPGKERELVAAISTRGGSTYYADSVKGRFTISRDNAKNTVYLQMNSLKPEDTAVYYCAATQPGRDYDYWGQGTQVTVSS”, for which the “polyreactivity (PSR sort gate)” value is “low polyreactivity”.
Take “QVQLVESGGGLVQAGGSLRLSCAASGITIKRYAMVWYSQAHGKEREFVATISQSGTSTYYADSVKGRFTISRDNAKNTVYLQMNSLKPEDTAVYYCAADYIGYWYGYYSWGQGTKVTVSS”: the “polyreactivity (PSR sort gate)” value is reported as “low polyreactivity”.
Take “QVQLVESGGGLVQAGGSLRLSCAASGSTFYIYAMGWYRQAPGKERELVAVITRRGGSTSYADSVKGRFTISRDNAKNTVYLQMNSLKPEDTAVYYCAAKRTWPDVKYIRYGYWGQGAQVTVSS”: the “polyreactivity (PSR sort gate)” value is on record as “high polyreactivity”.
To “QVQLVESGGGLVQAGGSLRLSCAASGRIIWPYAIGWYRQAPGKERELFATITSGGRTNYADSVKGRFTISRDNAKNTVYLQMNSLKPEDTAVYYCIADHWLYYGAGYDYWGQGTQVTVSS” belongs “low polyreactivity”; to “QVQLVESGGGLVQAGGSLRLSCAASGSTFPPNAMGWYRQAPGKERELVAVISYSDGSTYYADSVKGRFTISRDNAKNTVYLQMNSLKPEDTAVYYCAAYSGYGGVSMYYWGQGTQVTGSS”, “low polyreactivity”.
For the sequence “QVQLVESGGGLVQAGGSLRLSCAASGYIFRYYVMGWYRQEPGKERELVAAITFSGGNTYYADSVKGRFTISRDNAKITVYLQMNSLKPEDTAVYYCAADVLYVGGSDYDYWVQGTQVTVSS”, the “polyreactivity (PSR sort gate)” value was “low polyreactivity”.
Turning to “QVQLVESGGGLVQAGGSLRLSCAASGSNSDPYAMGWYRQAPGKEREFVAAITFSVSSTYYADSVKGRFTISRDNAKNTVYLQMNSLKPEDTAVYYCAARRPLYPERDYWGQGTQVTVSS”, the “polyreactivity (PSR sort gate)” value is given as “high polyreactivity”.
For the sequence “QVQLVESGGGLVQAGGSLRLSCAASGSTFSHNAMGWYRQAPGKERELVAAIRWNGGSTHYADSVKVRFTISRDNAKNTVYLQMNSLKPEDTAVYYCAKENHYFTQGYGYWGQGTQVTVSS”, the “polyreactivity (PSR sort gate)” value is “low polyreactivity”.
Consider “QVQLVESGGGLVQAGGSLRLSCAASGFIFGTYAMGWYRQAPGKERELVAAISQSGGRTYYADSVKGRFTISRDNAKNTVYLQMISLKPEDTAVYYCAARHRPTGISTGYDYWGQGTQVTVSS”, for which the “polyreactivity (PSR sort gate)” value was “high polyreactivity”.
To “QVQLVESGGGLVQAGGSLRLSCAASGSTFSYYAMGWYRQAPGKERELVAAITSSGGRTYYADSVKGRFTISRDNAKYTVYLQMNSLKPEDTAVYYCATRKPRYQRAFDSWGQGTQVTVSA” belongs “high polyreactivity”.
In the case of “QVQVVESGGGLVQAGGSLGLSCAASGSIFGTNAMGWSRQAPGKERELVAAISSSGTSTYYADSVKGRFTISRDKAKNTDYLQMNSLKPEDTAVYYCAAATNWGGEYWGQGTQVTVSS”, the “polyreactivity (PSR sort gate)” value is “high polyreactivity”.
To “QVQLVESGGGLVQAGGSIRLSCAASGFIIKVYAMGWYRQAPGKERELVAAITWSGGSTYYADSVKGRFTISRDNAKNNVYLQMNSLKPEDTAVYYCNTDAYRYPEYDYWGQGTQVTVSS” belongs “low polyreactivity”; to “QVQLVESGGGLVQAGGSLRLSCAASGGILGWSAMGWSRQAPGKERELVAAIRDSGGSTYYADSVKGRFTIARDNAKKTVYLQMNSLKPEDTAVYYCAAYYIASRSTRYYYWGQGTQVTVSS”, “high polyreactivity”.
To “QVQLVESGGGLVQAGGILRLSCAASGSTLGFNAMGWYRLAPGKEREFDAGISASGSSTYYADSVKGRFTISRDNAKNTVYLQMNSLKPEDTAVYYCYAPRGSRRSYRRTEFYYWGQGTQVTVSS” belongs “high polyreactivity”.
To “QVQLVESGGGLVQAGGSLRLSCAASGSTFRYNAMGWYRQAPGKERELVAAISKSGGSTYYADSVKGRFTISRDNAKNTVYLQMNSLKPEDTAVYYCATSYPYRIYRSSYDYWGQGTQVTVSS” belongs “high polyreactivity”; to “QVQLVESGGGLVQAGGSLRLSCAASGRIFLGNAMGWYRQAPGKDRELVAAITNGGGSTYYADSVKGRFTISRDNAKNTVYLQMNSLKPEDTAVYYCARGYKKSVQRFEYWGQGTQVTVSS”, “high polyreactivity”.
Turning to “QVQLVESCGGLVQAGGSLRLSCAASGYIFVNYAMGWYRQAPGKQRELVARITGSGGSTDYADSVKGRFTISRDNAKNTVYLQMNSLKPEDTAVYYCNTKYVRYLRYYTYKYWGHGTQVTVSS”, the “polyreactivity (PSR sort gate)” value is listed as “low polyreactivity”.
For “QVQHVESGGGLVQAGGSLRLSCAASGRTLRYYAMGGYRRAPGKERELVAAITKSGGSPYYADSVKGRFTISRDNAKNTVYLQMYSLKPEDTAVYYCNKVTYSRAQYIGGAGYYWGQGTQVTVSS”, the “polyreactivity (PSR sort gate)” value is “high polyreactivity”.
Turning to “QVQLVESGGGLVQAGGSLGLSCAASGFTFDLYAMGWYRQAPGKERALVAAISWSGGSTRYADSVKGRFTISRDYAKNTVYLQMNSLKPEDTAVYYCARQPRLYFKGKLYGYWGQGTQVTVSS”, the “polyreactivity (PSR sort gate)” value was “high polyreactivity”.
As for “QVQLVESGGGLVQAGGSLRLSCAASGFTFIFNAMGWYREAPGKERELVAAITWGGASTDYADSVKGRFTISRDNAKNTVNLQMKSLKPEDTAVYYCAKDNWDNPRPTSEMDYWGQGTQVTVSS”, the “polyreactivity (PSR sort gate)” value is listed as “low polyreactivity”.
Turning to “QVQLVESGGGLVQAGGSLRLSCAASGFTFYYYAMGWYRQAPRKERQLVAAFSWSGGSTYYADSVKGRFTISRDYAKNTVYLQMNRLKPVDTAVYYCNAYPGYRSRSDYGYWGQGTQVTVSS”, the “polyreactivity (PSR sort gate)” value is on record as “high polyreactivity”.
As to “QVQLVESGGGLVQAGGSLRLSCAASGRIFQANAMGWYRQAPGKERELVASISSGGSTNYADSVKGRFTISRDNAKNTVYLQMNSLKPEDTAVYYCAARHPSSAYWVGYYWYDYWGQGTQVTVSS”, the “polyreactivity (PSR sort gate)” value is recorded as “low polyreactivity”.
Consider “QVQLVESGGGLVQAGGSLRLSCAASGSIFAYYVMGWYRHAHGKERELVAAISARGGRTYYADSVKGRFTISRDNAKNTVYLQMNSLKQEDTAVYYCNALDQRYSQAVEYDYWGQGTQVTVSS”, for which the “polyreactivity (PSR sort gate)” value was “high polyreactivity”.
“QVHLVESGGGLVQAGGSLRLSCAASGRTFCYNAMGWYRPAPGKERELVAAITSSGGGTSYADSVKGRFTISRDNAMNTVYLQMNSLKPEDTAVSYCARVRRYPLRYNYWGQGTQLTVSS”: the “polyreactivity (PSR sort gate)” value was “high polyreactivity”.
“QVQLVESGGGLVQAGGSLRLSCAASGSIFGQYAMGWYRQAPGKERELVAAITDTGDSTYYADSVMGRFTISRDNAKNTVYLQMNSLKPEDTAVYYCAADVYYAFGSMYYWGQGTQVTVSS”: the “polyreactivity (PSR sort gate)” value is “low polyreactivity”.
In the case of “QVQLVESGGGLVQAGGSLRLSCAASGNTFKYYAMGWYRQAPGKERELVAAISYSGGSTYYADSVKGRFTISRDNAKNTVYLLMNSLKPEVTAVYYCAADLDSERYYWGQGTQVTVSS”, the “polyreactivity (PSR sort gate)” value is recorded as “low polyreactivity”.
For “QVQLVESGGGLVQAGGSLRLSCAASGSIFKVYAMGWYRQAPGKEREIVAAITSSDSNTNYADSVKGRFTISRDNEKNTVYLQMNSLKPEDTAVYYCNARIYTRRYVPHYGFNYWGQGTQVTVSS”, the “polyreactivity (PSR sort gate)” value is “low polyreactivity”.
To “QVQLVESGGGLVQAGGSLRLSCAASGSTFSFNDRGWYRQAPGKERELVADISCSGDTTYADSVKGRFTISRDNAKNTVYLQMKSLKPEATAVYYCAARQYFRNYVYWGQGTQVTVSS” belongs “high polyreactivity”; to “QVQLVESGGGLVQAGGSLRLTCAASGRTFNVNVMGWSRQAPGKERELVAAIRYTGGSTYADSVKGRFTISRDNAKNTVYLQMNSLKPEDTAVYYCNADTFFPFDHGMDYWGQGTQVTVSS”, “low polyreactivity”.
